The target of assay [1] is T1, kallikrein related peptidase 2 (hK2), soluble (human, UniProt P20151 19-261, biotin label in the CAR staining assays (site not stated)).
T1 construct: also called KLK2; human KLK2 protein
Nature of the assay: flow cytometry, primary human T cells transduced with the CAR lentivirus (MOI 3), biotinylated hK2 (1 ug/ml) then streptavidin-PE, 14 days after transduction; UTD gate 0.086.

Assay [2] addresses T1, kallikrein related peptidase 2 (hK2), …. Nature of the assay: SPR; antibody captured on anti-Fc sensor chip, soluble hK2 injected; 1:1 Langmuir fit, KD = koff/kon.
Description: Affinity of selected hK2 antibodies for soluble hK2 was measured by surface plasmon resonance (SPR). […] Antibodies were captured on a sensor chip coated with an anti-Fc antibody followed by injection of soluble hK2 at various concentrations and specified association and dissociation times. Post dissociation, the surface was regenerated with an appropriate solution to prepare for the next interaction. Kinetic information (on-rate and off-rate constants) were extracted by fitting sensorgrams to the 1:1 Langmuir model. Binding affinity (KD) are reported as the ratio of rate constants (koff/kₒₙ).

We go through 10 molecules from patent US20260152559A1 (Janssen / Centocor, published 2026).

T1 sequence (P20151 19-261): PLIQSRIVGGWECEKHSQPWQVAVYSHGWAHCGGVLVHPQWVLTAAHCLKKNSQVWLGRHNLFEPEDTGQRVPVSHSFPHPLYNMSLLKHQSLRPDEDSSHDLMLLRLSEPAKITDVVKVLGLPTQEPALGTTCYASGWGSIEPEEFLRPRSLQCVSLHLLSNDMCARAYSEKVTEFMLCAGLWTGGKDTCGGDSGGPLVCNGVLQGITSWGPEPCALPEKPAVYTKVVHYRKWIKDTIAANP

B1: CAR1 (HL_HCG5_LCD6_20AA) (other)
chain: QVQLQESGPGLVKPSDTLSLTCAVSGNSITSDYAWNWIRQFPGKGLEWMGYISYSGSTTYNPSLKSRVTISRDTSKNQFSLKLSSVTPVDTAVYYCATGYYYGSGFWGQGTLVTVSSGGSEGKSSGSGSESKSTGGSDIVLTQSPDSLAVSLGERATINCKASESVEYFGTSLMHWYQQKPGQPPKLLIYAASNRESGVPDRFSGSGSGTDFTLTIQSVQAEDVSVYFCQQTRKVPYTFGQGTKLEIKTSTPAPRPPTPAPTIASQPLSLRPEACRPAAGGAVHTRGLDFACDIYIWAPLAGTCGVLLLSLVITLYCKRGRKKLLYIFKQPFMRPVQTTQEEDGCSCRFPEEEEGGCELRVKFSRSADAPAYKQGQNQLYNELNLGRREEYDVLDKRRGRDPEMGGKPRRKNPQEGLYNELQKDKMAEAYSEIGMKGERRRGKGHDGLYQGLSTATKDTYDALHMQALPPR
notes: Chimeric antigen receptor (scFv, CD8a hinge and transmembrane region, 4-1BB and CD3-zeta domains) on JNL cells or primary human T cells; also called hK2 CAR; pDR000083431
For the molecule B1, the “% of cells in the hK2CAR+ CD3+ gate” value in assay [1] was 20%.

B2: CAR13 (HL_HCHumanized_LCHumanized_20AA) (other)
chain: QVQLQESGPGLVKPSDTLSLTCAVSGNSITSDYAWNWIRQPPGKGLEWIGYISYSGSTTYNPSLKSRVTMSRDTSKNQFSLKLSSVTAVDTAVYYCATGYYYGSGFWGQGTLVTVSSGGSEGKSSGSGSESKSTGGSDIVLTQSPDSLAVSLGERATINCKASESVEYFGTSLMHWYQQKPGQPPKLLIYAASNRESGVPDRFSGSGSGTDFTLTISSLQAEDVAVYYCQQTRKVPYTFGQGTKLEIKTSTPAPRPPTPAPTIASQPLSLRPEACRPAAGGAVHTRGLDFACDIYIWAPLAGTCGVLLLSLVITLYCKRGRKKLLYIFKQPFMRPVQTTQEEDGCSCRFPEEEEGGCELRVKFSRSADAPAYKQGQNQLYNELNLGRREEYDVLDKRRGRDPEMGGKPRRKNPQEGLYNELQKDKMAEAYSEIGMKGERRRGKGHDGLYQGLSTATKDTYDALHMQALPPR
notes: Chimeric antigen receptor with the hu11B6 scFv in VH-linker-VL order, on JNL cells or primary human T cells; also called 11B6_HL; parental 11B6 CAR HL
Turning to B2, the “% of cells in the hK2CAR+ CD3+ gate” value in assay [1] came out at 6.12%.

B3: CAR2 (HL_HCG5_LCHumanized_20AA) (other)
chain: QVQLQESGPGLVKPSDTLSLTCAVSGNSITSDYAWNWIRQFPGKGLEWMGYISYSGSTTYNPSLKSRVTISRDTSKNQFSLKLSSVTPVDTAVYYCATGYYYGSGFWGQGTLVTVSSGGSEGKSSGSGSESKSTGGSDIVLTQSPDSLAVSLGERATINCKASESVEYFGTSLMHWYQQKPGQPPKLLIYAASNRESGVPDRFSGSGSGTDFTLTISSLQAEDVAVYYCQQTRKVPYTFGQGTKLEIKTSTPAPRPPTPAPTIASQPLSLRPEACRPAAGGAVHTRGLDFACDIYIWAPLAGTCGVLLLSLVITLYCKRGRKKLLYIFKQPFMRPVQTTQEEDGCSCRFPEEEEGGCELRVKFSRSADAPAYKQGQNQLYNELNLGRREEYDVLDKRRGRDPEMGGKPRRKNPQEGLYNELQKDKMAEAYSEIGMKGERRRGKGHDGLYQGLSTATKDTYDALHMQALPPR
notes: Chimeric antigen receptor on JNL cells or primary human T cells; also called hK2 CAR; pDR000083432
In the case of B3, in assay [1], the “% of cells in the hK2CAR+ CD3+ gate” value was determined as 23.6%.

B4: KL2B467 (Fab) (Fab, V domains shown)
VH: QVQLVESGGGVVQPGRSLRLSCAASGFTFSYYGMHWVRQAPGKGLEWVAFISYDGSNKYYADSVKGRFTISRDNSKNTLYLQMNSLRAEDTAVYYCAHLPYSGSYWAFDYWGQGTQVTVSS
VL: QSVLTQPPSVSVAPGQTASITCGGDNIGSKSVHWYQQKPGQAPVLVVYDNSDRPSGIPERFSGSNSGTTATLTISRVEAGDEADYYCQVWDSSSDHPVVFGGGTKVTV
Regarding B4, the Kd in assay [2] came out at 0.078 nM. This lies in the picomolar range.

B5: KL2B53 (Fab) (Fab, V domains shown)
VH: EVQLVESGGGVVQPGRSLRLSCVASGFTFSSYDIHWVRQAPGKGLEWVAIISYDGSKKDYTDSVKGRFTISRDNSKNTLYLQMDSLRVEDSAVYSCARESGWSHYYYYGMDVWGQGTMVTVSS
VL: DIVMTQSPSSLSASVGDRVTITCRASQDISNYLAWYQQKPGKVPKFLIYAASTLHSGVPSRFSGSGSGTDFTLTISSLQPEDVATYYCQKYNSAPYTFGQGTRLEIK
With B5, the Kd in assay [2] is 0.08 nM.

B6: KL2B242 (Fab) (Fab, V domains shown)
VH: QVQLQESGPGLVKPSETLSLTCTVSGGSISSYYWSWLRQPAGSGLEWIGRLYVSGFTNYNPSLKSRVTLSLDPSRNQLSLKLSSVTAADTAVYYCAGDSGNYWGWFDPWGQGTLVTVSS
VL: SYELTQPPSVSVSPGETASITCSGDQLGENYACWYQQKPGQSPVLVIYQDSKRPSGIPERFSGSNSGNTATLTISGTQALDEADYYCQAWDNSIVVFGGGTKLTVL
For the molecule B6, binding in assay [2] was put at a Kd of 0.04 nM. This Kd lies about 2-fold lower than the previous one.

B7: KL2B413 (scFv-LH-Fc) (Fc fusion)
chain: EIVLTQSPSFLSASVGDRVTITCRASQGISSYLSWYQQKPGKAPKLLIYATSTLQSGVPSRFSGSGSGTEFTLTISSLQPEDFATYYCQQLNSYPRTFGQGTKVEIKGGSEGKSSGSGSESKSTGGSEVQLVESGGGLVQPGGSLRLSCAASGFTFSSYWMTWVRQAPGKGLEWVANIKQDGSERYYVDSVKGRFTISRDNAKNSLYLQMNSLRAEDTAVYYCARDQNYDILTGHYGMDVWGQGTTVTVSSEPKSSDKTHTCPPCPAPEAAGGPSVFLFPPKPKDTLMISRTPEVTCVVVSVSHEDPEVKFNWYVDGVEVHNAKTKPREEQYNSTYRVVSVLTVLHQDWLNGKEYKCKVSNKALPAPIEKTISKAKGQPREPQVYVLPPSREEMTKNQVSLLCLVKGFYPSDIAVEWESNGQPENNYLTWPPVLDSDGSFFLYSKLTVDKSRWQQGNVFSCSVMHEALHNHYTQKSLSLSPG
notes: also called KL2B413-LH-scFv-Fc
Consider B7, for which the affinity in assay [2], expressed as Kd, was 34.3 nM.

B8: KL2B359 (scFv-LH-Fc) (Fc fusion)
chain: EIVLTQSPATLSLSPGERATLSCRASESVEYFGTSLMHWYQQKPGQPPRLLIYAASNVESGIPARFSGSGSGTDFTLTISSVEPEDFAVYFCQQTRKVPYTFGGGTKVEIKGGSEGKSSGSGSESKSTGGSQVQLQESGPGLVKPSQTLSLTCTVSGNSITSDYAWNWIRQFPGKRLEWIGYISYSGSTTYNPSLKSRVTISRDTSKNQFSLKLSSVTAADTAVYYCATGYYYGSGFWGQGTLVTVSSEPKSSDKTHTCPPCPAPEAAGGPSVFLFPPKPKDTLMISRTPEVTCVVVSVSHEDPEVKFNWYVDGVEVHNAKTKPREEQYNSTYRVVSVLTVLHQDWLNGKEYKCKVSNKALPAPIEKTISKAKGQPREPQVYVLPPSREEMTKNQVSLLCLVKGFYPSDIAVEWESNGQPENNYLTWPPVLDSDGSFFLYSKLTVDKSRWQQGNVFSCSVMHEALHNHYTQKSLSLSPG
notes: also called KL2B359-LH-scFv-Fc
In the case of B8, in assay [2], the Kd is 0.7 to 1 nM.

B9: KL2B30 (Fab) (Fab, V domains shown)
VH: QVQLQESGPGLVKPSETLSLTCTVSGGSISSYYWSWIRQPPGKGLEWIGYIYYSGSTNYNPSLKSRVTISVDTSKNQFSLKLSSVTAADTAVYYCAGTTIFGVVTPNFYYGMDVWGQGTTVTVSS
VL: DIQMTQSPSFLSASVGDRVTITCRASQGISSYLAWYQQKPGKAPKFLIYAASTLQSGVPSRFSGSGSGTEFTLTISSLQPEDFATYYCQQLNSYPLTFGGGTKVEIK
Molecule B9 registered a Kd in assay [2] of 0.46 nM.

B10: KL2B494 (Fab) (Fab, V domains shown)
VH: QVQLVESGGGLVQPGGSLRLSCAASGFTFSHYAMSWVRQAPGKGLEWVSTIGGSGGSTYYADSVKGRFTISRDNSKNTLYLQMNSLRAEDTAVYYCAKPHIVMVTALLYDGMDVWGQGTMVTVSS
VL: SSELTQPPSVSVAPGQTARITCGGNNIGSKSVHWYQQKPGQAPVLVVYDDSDRPSGIPERFSGSNSGNTATLTISRVEAGDEADYYCQVWDSSSDHVVFGGGTKLTVL
With B10, in assay [2], binding was characterised by a dissociation constant (Kd) of 0.053 nM.
